± gives the uncertainty stated by the source.

This data set can be described thus: amyloid nucleation score (Sup35N fusion, yeast selection) (log enrichment); library NNK2; higher = more nucleation; inactive = no reads after selection. The method in brief:
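Psi-negative yeast expressed Sup35N fused to peptides of 20 random codons. They were induced 24 hours with 100 μM copper sulfate, grown 7 days at 30°C without adenine and uracil, and their plasmid inserts from input and output were Illumina-sequenced. The nucleation score is the DiMSum log enrichment of output over input reads, centred on the mode score of non-aggregating sequences. Sequences with under 100 input reads were excluded.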

Regarding SGERRTGCPEAAS, the amyloid nucleation score turned out to be 0.075 ± 0.34.
In the case of AISPVGYCDSTFVFSTSLCG it was 4.13 ± 0.12; in that of TTAWSVEINGTMRNDDMSAS, 2.2 ± 0.091.
With RRRGVLLTRPLKRQLVK, the amyloid nucleation score entry was “inactive”.
In the case of IVTTKWGNSHVSSVRIKARL it was 5.42 ± 0.084.
In the case of KVNKCIIRQLDLNMPLASRW it was 0.584 ± 0.46; in that of FSFRVMRHSKKGK, “inactive”.
In the case of THSNWTKNSVSSIYCIKILF it was 6.647 ± 0.037.
ALCGCPCRKPSATVINLPLF yielded an amyloid nucleation score of 0.165 ± 0.37.
In the case of LIVYKLV it was -0.094 ± 0.74; in that of SATFWLFVGVENVADMSKVG, 0.261 ± 0.4.
In the case of IGNAMHSLHSIHVRCRHSLE it was 0.713 ± 0.74.
In the case of VTPTFCETLVKPLHALHTNC it was -1.22 ± 0.62.
VDYTVFGGPTQRIGER registered an amyloid nucleation score of 0.073 ± 0.3.
In the case of FNAIYIKFTGRFSLTRDNRC it was 1.73 ± 0.21; in that of MGCCIYCYSRIDHL, 8.743 ± 0.055; in that of KFMHRWPVYMVSTGLSLIVW, -0.458 ± 0.41.
In the case of LIISRTFVTAPM it was “inactive”.
The substance RVRGWLSMSWGCGMGLPASS showed an amyloid nucleation score of 7.03 ± 0.074.
With VRCRMFMYVMSDLSFMS, the amyloid nucleation score came to 3.6 ± 0.047.
In the case of LFIRSIRPMDVVGVTLSAVE it was 0.764 ± 0.41; in that of AYMSYRAGMDRLQCDVS, -0.947 ± 1.1.
In the case of YCHPFVRHRLKLCTDACY it was -0.174 ± 0.31; in that of AKPRYN, 0.221 ± 0.42; in that of TGCDVLRIVTRMMGKNKRYF, -0.047 ± 1.1.
The result for WSKVMCQWFSDIYSVTNFGC reads 2.76 ± 0.085; that for VPGSMLLCIVQALKHANMAG, 0.417 ± 0.24; that for IFIMQTHFTGRVCPSSVKLP, 4.99 ± 0.066.
QCSIVWR returned an amyloid nucleation score of 6.61 ± 0.076.
The result for SLGHDSICWRWSLE reads 5.49 ± 0.094.
In the case of VRTWESIVCCI it was 4.14 ± 0.051.
The result for SVLEANMHAVWTGRYEN reads 0.713 ± 0.22.
The substance SSLYHLAGHGTAGSRLTSGR gave an amyloid nucleation score of 0.511 ± 0.41.
Substance CNFYCPRDPQSSIVSYTMSY had an amyloid nucleation score of -0.159 ± 1.
In the case of NRSMSISGMTGYEQLKRHGT it was 0.023 ± 0.27; in that of LLPWHRIAWDAYCMWGMSSS, 0.266 ± 0.21; in that of TFHGFMCGQTLRGPFRLSWW, 3.95 ± 0.088.
RKISMTN registered an amyloid nucleation score of -0.573 ± 0.3.
The result for AANRPGTSC reads 0.767 ± 0.74; that for TMLETLRARADLMCQVWYSV, 0.964 ± 0.4.
In the case of FYEYTDTASAGPDETLYLRN it was 0.022 ± 0.63; in that of SESGR, 1.74 ± 0.21; in that of SNGTWLKNLGGPPPGRAMPW, 0.419 ± 0.34.
The result for WMSMKFCFIFLPFYKSSVCM reads 1.91 ± 0.18; that for SPFFVMLIITFTRMVEDLRM, -0.683 ± 1.1; that for RLELVTVVSVSMHDLRHRRR, 4.75 ± 0.071.
For HEYVAALGWMAEGLSKFLKR, the amyloid nucleation score came to 0.579 ± 0.8.
The result for SSYVVNSERVSDVARHSTLQ reads 1.91 ± 0.21.
The substance NYLSLVGRFNMGWGESNGRR registered an amyloid nucleation score of 5.888 ± 0.058.
The result for CGMKTRQYCTMSRYVGRYVR reads 0.231 ± 0.24.
The substance EEMYRSIARNVVVLNRYCES had an amyloid nucleation score of -0.468 ± 0.26.
In the case of SRWLGAKCSSRC it was -0.361 ± 0.48; in that of FTCNACGYERSSVAYRNNPL, -0.22 ± 1.1; in that of SSDNTQYTETRYSYGFLIKL, 0.776 ± 0.56.
Regarding HDDRFSCECYSSDSPESQGL, the amyloid nucleation score was -0.105 ± 1.1.
FYVPSS registered an amyloid nucleation score of -0.158 ± 0.63.
In the case of FNHYQ it was 0.419 ± 0.36.
The result for KTQKLLGRAWRNYGYGCCVR reads -0.487 ± 1.1; that for FEFTTCQGDRRSCFDGWGGN, 2.19 ± 0.15.
The result for YAIFYGRLNMCGSGLSVPRE reads 0.381 ± 0.62; that for ANNVSGIIVCTNFDILMYGR, 7.791 ± 0.042.
Turning to TWDSRYGVACLV, the amyloid nucleation score was -0.325 ± 0.33.
The substance HTTDEISAS came in with an amyloid nucleation score of 1.09 ± 0.36.
In the case of YWFARCHFSPAMRIYYRTRA it was -0.171 ± 0.62; in that of NCVTHFMFNLDWSLWFEVCF, -1.04 ± 1.1.
The result for THSWGFSLYTFLVYINLSYI reads -0.545 ± 1.
In the case of DFLSVYSYIKWWAA it was -0.886 ± 0.49; in that of LCYHLYTRVITCFLLIDLVC, -0.27 ± 1.1; in that of AFPPE, -0.726 ± 1.1.
Substance SSAWLDLDIMLGLFVIVFTP registered an amyloid nucleation score of 5.439 ± 0.044.
The result for TICDTLGYLTRSWYLSYESS reads -0.545 ± 0.32; that for SRFCVRRLTVYRRSV, 0.43 ± 0.45.
The result for GNKLYFCSFAWLEVFKFKDL reads 1.86 ± 0.082; that for FYIFPQAFRLWKSLS, “inactive”.
In the case of KTGVGTYIPQWDCNGHEMVS it was 0.423 ± 0.35; in that of WSNGR, 0.329 ± 0.44; in that of WPRFTCCPTYYICIAQSPGQ, 9.807 ± 0.035.
IYRSVTRKSERMCTVVGQVV yielded an amyloid nucleation score of -0.279 ± 0.48.
In the case of IFTYCVWSFSWFW it was 7.302 ± 0.053; in that of RSSLIIALCWFR, 5.54 ± 0.059.
The result for VYFFCYSFTYEEGMAIRKSC reads -1 ± 0.78; that for TVSMNMRCCVECHYIKERYL, 4.16 ± 0.051; that for SPTCWRRRTPLIVKYRFISV, 1.15 ± 0.34.
In the case of NLRNKIVGLTKGLVCRANVV it was 2.34 ± 0.091.
Turning to THVRVEVLS, the amyloid nucleation score entry is “inactive”.
The result for LLGGWESHSRRNVWYAAGLC reads -0.711 ± 1.1; that for VSLIVYKGHKRGWVYRVSRR, 0.42 ± 0.65; that for CMSAIFLPMIEF, -0.714 ± 0.44.
With SPSDAL, the amyloid nucleation score is -0.578 ± 0.36.
In the case of FNGVIFNGSSVNYYPFAHSF it was 5.035 ± 0.036; in that of MWFWTLCIF, 8.025 ± 0.027.
The result for ACILSVYFS reads 2.12 ± 0.15; that for FKHVLDRN, -0.343 ± 0.45.
The result for HLLQRLSRGHMSALKTRLSW reads 0.123 ± 1; that for SVQVMCQSWPLSPLFAPRHR, 5.92 ± 0.039.
In the case of WIARC, the amyloid nucleation score was -0.149 ± 0.42.
The result for VKYYQGIGVWSKVWIMFD reads 0.7 ± 0.42.
The substance VSVARSSFARKDYCEFFRPG had an amyloid nucleation score of 1.17 ± 0.28.
The substance CLRSCRPYSQTIINVA registered an amyloid nucleation score of 6.16 ± 0.062.
As to LAPCISNMSRLL, the amyloid nucleation score was -1.25 ± 0.36.
In the case of VRFEELTEY it was -0.171 ± 1; in that of TKTTWSDPGG, 0.922 ± 0.43.
The substance YGTCFS gave an amyloid nucleation score of 0.191 ± 0.47.
FRIGFVFCVSYCRECRN gave an amyloid nucleation score of 0.065 ± 1.1.
In the case of YSIKQAY it was “inactive”.
In the case of VKFFFTILVPFLIFVS it was “inactive”; in that of RDNRSLTELLNRTMVHFVIM, “inactive”.
In the case of HLSRFKWKHLFLNTVLTFAV it was “inactive”; in that of VVFVCN, “inactive”.
YSVLTLED yielded an amyloid nucleation score of 0.374 ± 0.29.
In the case of DVFVRSRGKGRFMGSRDNWA it was 0.76 ± 0.4; in that of ARYISCRKEFRYLESA, 0.069 ± 0.37.
The result for FFLLPLVRYELLSNVDAVPG reads 0.101 ± 0.76.
The result for VIVLIVLPEYAGVYSHWCWD reads 0.772 ± 0.81; that for SRFLARQLLKSASLRLFVET, -0.159 ± 0.35.
Substance VTVMTRLDFSTRSSATKPHG returned an amyloid nucleation score of 5.667 ± 0.044.
The result for CSRRYSLRL reads -0.319 ± 0.54.
The result for TVKCLYMGNGAWKTASSVCG reads 0.482 ± 0.38; that for VLWHTGDMDMRVNRANELVS, 4.52 ± 0.046; that for WSLKKLITDRFGSSCSAALH, “inactive”.
The result for TPLTVYDFPYNEGCCAV reads 1.7 ± 0.34.
LRCFSHRPCPKNNIVF registered an amyloid nucleation score of 0.602 ± 0.81.
CVSFVQSFCYIHIQLNYHCR yielded an amyloid nucleation score of -0.43 ± 1.1.
In the case of KRSSGRVFHPRMSRW it was 0.641 ± 0.4.
In the case of FARKMIGLPLLYLLGVMFGR it was -0.877 ± 0.78; in that of FNWVEWLFFSMAFKLLVESR, “inactive”.
In the case of GQLSFCGVVYDISRQEPTIF it was “inactive”; in that of EIDQSYVNTSSQQTSIYV, “inactive”.
In turn, VSVGACTHTLYKVRALSQGV registered an amyloid nucleation score of 0.486 ± 0.26.
LLPRCDGGVLVHLNDKSYKL displayed an amyloid nucleation score of 1.32 ± 0.39.
In the case of YAFHSSWYADRSALLQLN it was 0.434 ± 0.3; in that of VMATLHSLFVYRVDTFMFVE, 0.358 ± 0.51.
With VGSFGLMKTYGVYCDNLLGR, the amyloid nucleation score result was “inactive”.
In the case of LDIYYFKKNSWAFHGSAGYP it was 1.87 ± 0.11; in that of VCFML, 0.94 ± 0.52.
In the case of ARFSKHHLTKVLFGKDYQAP it was 0.235 ± 0.34; in that of SCYNFVWYTCGLYMWLNCLL, -0.793 ± 0.32; in that of SIWYSNYNNSRKIPSAYKKW, 2.34 ± 0.071.
The result for FRCAE reads 3.84 ± 0.091; that for WWNEYSH, -1.01 ± 0.39.
